Assay results taken from patent publication US20210221875A1 (Chugai, published 2021).
Residue numbers refer to the chain shown, from its start.

Key:
[1] = target: T1, biotin-rabbit aggrecan G1-IGD-G2-3xFlag (rabbit, UniProt Q28670 17-683, biotin on the N-terminal Avi-tag (BirA co-expression)); assay: SPR (Biacore T200), 37 C, pH 7.4, antibody captured, Avi RbG1G2 3Flag as analyte, 1:1 model; second row with this name
T1 construct: three tandem Flag-tags at the C-terminus and Avi-tag at the N-terminus; also called biotinylated Avi-rabbit aggrecan G1-IGD-G2-3xFLAG; Avi RbG1G2 3FLAG
Method: (§1) Anti-Human IgG (Fc) antibody was immobilized onto all flow cells of a CM4 sensor chip using Human antibody capture kit (GE Healthcare). Protein A/G was immobilized onto all flow cells of a CM4 or C1 sensor chip using amine coupling kit (GE Healthcare). Antibodies and analytes were prepared in buffer (50 mM Sodium Phosphate, 150 mM NaCl, 0.02% Tween 20, 0.005% NaN3, pH 7.4 or 20 mM Sodium Phosphate, 150 mM NaCl, 0.05% Tween20, 0.005% NaN₃, pH 7.4). Each antibody was captured onto the sensor surface by Anti-Human IgG (Fc) antibody or Protein A/G. Antibody capture levels were aimed at 200 resonance unit (RU). […] Sensor surface was regenerated each cycle with 3 M MgCl₂ or 10 mM Glycine-HCl, pH 1.5.

[2] = target: T1, biotin-rabbit aggrecan G1-IGD-G2-3xFlag; assay: SPR (Biacore T200), 37 C, pH 7.4, antibody captured, Avi RbG1G2 3Flag as analyte, 1:1 model;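 further: antibodies captured at roughly 200 RU on a CM4 or C1 chip through anti-human IgG Fc or Protein A/G, in sodium phosphate NaCl buffer with Tween 20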
Method: as §1

soluble human IL-6R [3] = target: T2, soluble human IL-6R (human, UniProt P08887 20-357); assay: BLI (Octet), in the same way as in Example 3, 30 C or 25 C
T2 construct: also called hsIL-6R; recombinant human IL6R
T2 sequence: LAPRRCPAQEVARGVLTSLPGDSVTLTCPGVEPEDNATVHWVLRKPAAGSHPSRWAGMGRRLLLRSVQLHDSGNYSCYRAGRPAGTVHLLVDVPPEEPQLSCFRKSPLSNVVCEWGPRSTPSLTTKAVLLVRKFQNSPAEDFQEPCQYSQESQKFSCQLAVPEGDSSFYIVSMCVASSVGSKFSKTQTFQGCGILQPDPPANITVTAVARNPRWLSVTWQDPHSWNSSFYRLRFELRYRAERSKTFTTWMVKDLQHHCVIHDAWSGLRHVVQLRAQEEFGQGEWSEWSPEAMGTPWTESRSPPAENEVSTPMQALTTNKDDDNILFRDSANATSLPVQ

soluble human IL-6R [4] = target: T2, soluble human IL-6R; assay: BLI (Octet), in the same way as in Example 3
[5] = target: T1, biotin-rabbit aggrecan G1-IGD-G2-3xFlag; assay: SPR (Biacore T200), 37 C, pH 7.4, antibody captured by protein A/G, 1:1 model; footnote: fitting was not good due to bi-phasic interaction
Method: (§2) The binding affinity of the antibodies at pH 7.4 was determined at 37 degrees C. using Biacore T200 instrument (GE Healthcare). Recombinant Protein A/G (Pierce) was immobilized onto all flow cells of a CM4 sensor chip using amine coupling kit (GE Healthcare). Antibodies and analytes were prepared in buffer (20 mM Sodium Phosphate, 150 mM NaCl, 0.05% Tween 20, 0.005% NaN₃, pH 7.4). Each antibody was captured onto the sensor surface by protein A/G. Antibody capture levels were aimed at 200 resonance unit (RU). […] Sensor surface was regenerated each cycle with 10 mM Glycine-HCl pH 1.5.

[6] = target: T3, Human aggrecan G1-IGD-G2 domain with Flag-tag on its C-terminus (human, UniProt P16112 17-675); assay: as above
T3 construct: used unlabelled as Biacore analyte; also called human aggrecan G1-IGD-G2-Flag; human Aggrecan G1G2 flag
Method: as §2

[7] = target: T1, biotin-rabbit aggrecan G1-IGD-G2-3xFlag; assay: SPR (Biacore T200), 37 C, pH 7.4, antibody captured by protein A/G, 1:1 model
Method: as §2

[8] = target: T3, Human aggrecan G1-IGD-G2 domain with …; assay: as above
Method: as §2

[9] = target: T1, biotin-rabbit aggrecan G1-IGD-G2-3xFlag; assay: SPR (Biacore), 37 C, as in Example 20
Method: as §2

[10] = target: T3, Human aggrecan G1-IGD-G2 domain with …; assay: SPR (Biacore), 37 C, as in Example 20
Method: as §2

soluble human IL-6R [11] = target: T2, soluble human IL-6R; assay: BLI (Octet HTX), molecule on Protein A sensor, hsIL-6R as analyte, 30 C
Method: The hsIL-6R binding evaluation of each molecule was conducted using Octet HTX (Pall ForteBio Corp.).

B1: GRA0124Hc0626-SG1/GRA0124Lc0544-SK2 (antibody, human IgG1, kappa)
heavy: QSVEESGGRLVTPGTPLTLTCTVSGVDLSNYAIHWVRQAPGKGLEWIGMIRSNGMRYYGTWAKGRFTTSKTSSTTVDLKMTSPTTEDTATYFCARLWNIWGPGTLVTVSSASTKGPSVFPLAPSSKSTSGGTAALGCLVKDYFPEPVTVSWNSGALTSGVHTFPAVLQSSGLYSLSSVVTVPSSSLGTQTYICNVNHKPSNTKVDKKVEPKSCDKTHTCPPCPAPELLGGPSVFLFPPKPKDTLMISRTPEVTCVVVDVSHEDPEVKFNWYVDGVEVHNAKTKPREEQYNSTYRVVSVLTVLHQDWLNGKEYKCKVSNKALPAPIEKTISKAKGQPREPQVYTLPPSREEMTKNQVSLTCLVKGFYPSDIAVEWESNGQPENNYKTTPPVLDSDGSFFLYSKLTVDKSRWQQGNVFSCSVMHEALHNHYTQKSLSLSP
light: AQVLTQTPSSTSVAVGGTVTINCQSSPSVYLNLLAWYQQKPGQPPKLLIYSASFLQSGVPPRFSGSGSGTQFTLTISGVQCADAATYYCAGVYSNNIYTFGGGTKVEIKRTVAAPSVFIFPPSDEQLKSGTASVVCLLNNFYPREAKVQWKVDNALQSGNSQESVTEQDSKDCTYSLSSTLTLSKADYEKHKVYACEVTHQGLSSPVTKSFNRGEC
notes: also called GRA0124ccAE02-SG1; GRA124ccAE02-SG1
Kd [1]: 4.07 nM | koff [1]: 0.000341 s⁻¹ | kon [1]: 83800 M⁻¹ s⁻¹ | Kd [2]: 15.6 nM | koff [2]: 0.000838 s⁻¹ | kon [2]: 53900 M⁻¹ s⁻¹

B2: 20A11hu-G1m/VK1-39-k0MT (antibody, human IgG1, kappa, V domains shown)
VH: EVQLVESGGGLVQPGGSLRLSCAASGSVFKINVMAWVRQAPGKGLEWVAGIISGGSTSYADSVKGRFTISRDNAKNTLYLQMNSLRPEDTAVYYCAFITTESDYDLGRRYWGQGTLVTVSS
VL: DIQMTQSPSSLSASVGDRVTITCRASQSISSYLNWYQQKPGKAPKLLIYAASSLQSGVPSRFSGSGSGTDFTLTISSLQPEDFATYYCLQFDSYPLTFGGGTKVEIKR
notes: IgG antibody-like molecule
binding result (soluble human IL-6R [3]): no binding

B3: 20A11hu-G1m/VK2-28-k0MT (antibody, human IgG1, kappa, V domains shown)
VH: B2 VH
VL: not shown
notes: IgG antibody-like molecule with VHH 20A11hu in place of VH
binding result (soluble human IL-6R [3]): no binding

B4: 20A11hu-G1m/VL1-40-lamL (antibody, human IgG1, lambda, V domains shown)
VH: B2 VH
VL: QSVLTQPPSVSGAPGQRVTISCTGSSSNIGAGYDVHWYQQLPGTAPKLLIYGNSNRPSGVPDRFSGSKSGTSASLAITGLQAEDEADYYCQSYDNSLNAVVFGGGTKLTVLG
notes: as for B3
binding result (soluble human IL-6R [3]): no binding

B5: 20A11hu-G1m/VL1-44-lamL (antibody, human IgG1, lambda, V domains shown)
VH: B2 VH
VL: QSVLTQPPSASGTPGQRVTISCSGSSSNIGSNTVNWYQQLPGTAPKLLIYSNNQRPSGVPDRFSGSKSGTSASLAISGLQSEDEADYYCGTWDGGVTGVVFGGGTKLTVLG
notes: as for B3
binding result (soluble human IL-6R [3]): no binding

B6: 20A11hu-G1m/VL2-14-lamL (antibody, human IgG1, lambda, V domains shown)
VH: B2 VH
VL: QSALTQPASVSGSPGQSITISCTGTSSDVGGYNYVSWYQQHPGKAPKLMIYEVSNRPSGVSNRFSGSKSGNTASLTISGLQAEDEADYYCSSYRSGYTLVVFGGGTKLTVLG
notes: as for B3
binding result (soluble human IL-6R [3]): no binding

B7: 20A11-G1m/VL3-21-lamL (antibody, human IgG1, lambda, V domains shown)
VH: B2 VH with V37Y, L45R, W47L
VL: SYVLTQPPSVSVAPGKTARITCGGNNIGSKSVHWYQQKPGQAPVLVIYYDSDRPSGIPERFSGSNSGNTATLTISRVEAGDEADYYCQAWDSSTDVVFGGGTKLTVLG
notes: IgG antibody-like molecule with VHH 20A11 in place of VH
binding result (soluble human IL-6R [4]): binds

B8: GRA0105gg-rbIgG (antibody)
heavy: QSLEESGGGLVTPGTPLTLTCTVSGLSLSNSVMSWVRQAPGKGLEWIGFISIHDETNYATWAKGRFTISKTSSTTVDLKMTSPTTDDTATYFCARDGDSHGFYFGLWGPGTLVTVSSGQPKAPSVFPLAPCCGDTPSSTVTLGCLVKGYLPEPVTVTWNSGTLTNGVRTFPSVRQSSGLYSLSSVVSVTSSSQPVTCNVAHPATNTKVDKTVAPSTCSKPMCPPPELLGGPSVFIFPPKPKDTLMISRTPEVTCVVVDVSQDDPEVQFTWYINNEQVRTARPPLREQQFNSTIRVVSTLPIAHQDWLRGKEFKCKVHNKALPAPIEKTISKARGQPLEPKVYTMGPPREELSSRSVSLTCMINGFYPSDISVEWEKNGKAEDNYKTTPTVLDSDGSYFLYSKLSVPTSEWQRGDVFTCSVMHEALHNHYTQKSISRSPGK
light: QVLTQTPSPVSAAVGGTVTINCQASQSVYNKNNLAWYQQKPGQPPKLLIYDASKLASGVPSRFKGGGSGTHFTLTISGVQCDDAATYYCQGTYYSSGWYNTFGGGTKVEIKRDPVAPTVLIFPPAADQVATGTVTIVCVANKYFPDVTVTWEVDGTTQTTGIENSKTPQNSADCTYNLSSTLTLTSTQYNSHKEYTCKVTQGTTSVVQSFNRGDC
notes: anti-aggrecan antibody, rabbit constant regions rbIgG / rbIgK
Kd [5]: 4.42 nM | koff [5]: 0.000255 s⁻¹ | kon [5]: 57700 M⁻¹ s⁻¹ | Kd [6]: 3.16 nM | koff [6]: 0.000287 s⁻¹ | kon [6]: 91100 M⁻¹ s⁻¹

B9: GRA1013hq-rIgG (antibody)
heavy: EVKLMESGGGLVKPGGSLKLSCAASGFTFSSYAMSWVRQTPEKRLEWVTSISSGGTTYYPDSVKGRFTISRDNARNILFLQMSSLRSEDTAMYYCARGPHWYLDVWGAGTSVTVSSSTKGGQPKAPSVFPLAPCCGDTPSSTVTLGCLVKGYLPEPVTVTWNSGTLTNGVRTFPSVRQSSGLYSLSSVVSVTSSSQPVTCNVAHPATNTKVDKTVAPSTCSKPMCPPPELLGGPSVFIFPPKPKDTLMISRTPEVTCVVVDVSQDDPEVQFTWYINNEQVRTARPPLREQQFNSTIRVVSTLPIAHQDWLRGKEFKCKVHNKALPAPIEKTISKARGQPLEPKVYTMGPPREELSSRSVSLTCMINGFYPSDISVEWEKNGKAEDNYKTTPTVLDSDGSYFLYSKLSVPTSEWQRGDVFTCSVMHEALHNHYTQKSISRSPGK
light: DILMTQTPLSLPVSLGDQASISCRSSQSIVHSNGNTYLEWYLQKPGQSPKLLIYKVSNRFSGVPDRFSGSGSGTDFTLKISRVEAEDLGVYYCFQGSHLPLTFGAGTKLELKRTVAARDPVAPTVLIFPPAADQVATGTVTIVCVANKYFPDVTVTWEVDGTTQTTGIENSKTPQNSADSTYNLSSTLTLTSTQYNSHKEYTCKVTQGTTSVVQSFNRGDC
notes: anti-aggrecan antibody from mouse B cells, rabbit constant regions rbIgG / rbIgK2
Kd [7]: 459 nM | koff [7]: 0.00973 s⁻¹ | kon [7]: 21200 M⁻¹ s⁻¹ | Kd [8]: 1540 nM | koff [8]: 0.0406 s⁻¹ | kon [8]: 26300 M⁻¹ s⁻¹

B10: GRA0124ccAE02-rbIgG (antibody)
heavy: QSVEESGGRLVTPGTPLTLTCTVSGVDLSNYAIHWVRQAPGKGLEWIGMIRSNGMRYYGTWAKGRFTTSKTSSTTVDLKMTSPTTEDTATYFCARLWNIWGPGTLVTVSSGQPKAPSVFPLAPCCGDTPSSTVTLGCLVKGYLPEPVTVTWNSGTLTNGVRTFPSVRQSSGLYSLSSVVSVTSSSQPVTCNVAHPATNTKVDKTVAPSTCSKPMCPPPELLGGPSVFIFPPKPKDTLMISRTPEVTCVVVDVSQDDPEVQFTWYINNEQVRTARPPLREQQFNSTIRVVSTLPIAHQDWLRGKEFKCKVHNKALPAPIEKTISKARGQPLEPKVYTMGPPREELSSRSVSLTCMINGFYPSDISVEWEKNGKAEDNYKTTPTVLDSDGSYFLYSKLSVPTSEWQRGDVFTCSVMHEALHNHYTQKSISRSPGK
light: QVLTQTPSSTSVAVGGTVTINCQSSPSVYLNLLAWYQQKPGQPPKLLIYSASFLQSGVPPRFSGSGSGTQFTLTISGVQCADAATYYCAGVYSNNIYTFGGGTKVEIKRDPVAPTVLIFPPAADQVATGTVTIVCVANKYFPDVTVTWEVDGTTQTTGIENSKTPQNSADCTYNLSSTLTLTSTQYNSHKEYTCKVTQGTTSVVQSFNRGDC
notes: also called GRA0124ccAE02-rIgG
Kd [9]: 16.4 nM | koff [9]: 0.000333 s⁻¹ | kon [9]: 20400 M⁻¹ s⁻¹ | Kd [10]: 553 nM | koff [10]: 0.0108 s⁻¹ | kon [10]: 19500 M⁻¹ s⁻¹

B11: IL6R90-G1m/VK2-28-k0MT (antibody, human IgG1, kappa, V domains shown)
VH: EVQLVESGGGLVQPGGSLRLSCAASGFTFDDYGMSWVRQAPGKALEWVSAISWNGNNTYYTESMKGRFTISRDNAKNTLYLQMNSLRPEDTAVYYCVKGSTAIVGVPPTYPDEYDYWGQGTLVTVSS
VL: not shown
notes: IgG antibody-like molecule with VHH IL6R90 in place of VH
binding result (soluble human IL-6R [11]): no binding

B12: IL6R90-G1m/VL1-40-lamL (antibody, human IgG1, lambda, V domains shown)
VH: B11 VH
VL: B4 VL
notes: as for B11
binding result (soluble human IL-6R [11]): no binding

B13: IL6R90-G1m/VL1-44-lamL (antibody, human IgG1, lambda, V domains shown)
VH: B11 VH
VL: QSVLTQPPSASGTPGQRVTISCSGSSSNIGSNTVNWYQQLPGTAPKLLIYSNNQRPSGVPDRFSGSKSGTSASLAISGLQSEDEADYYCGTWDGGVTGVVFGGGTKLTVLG
notes: as for B11
binding result (soluble human IL-6R [11]): no binding

B14: IL6R90-G1m/VL2-14-lamL (antibody, human IgG1, lambda, V domains shown)
VH: B11 VH
VL: B6 VL
notes: as for B11
binding result (soluble human IL-6R [11]): no binding
